Test results taken from publication PMC10063446 (Nature Immunology, 2023).
Substitutions are numbered along the chain they refer to. Names and notes keep the numbering of the source.

B1: P195-2B8 (antibody, V domains shown)
VH: EVQLVESGGGLIHPGGSLRLSCAASGFTVSSNYMTWVRQAPGKGLEWVSVIYSGGSTFYADSVKGRFTISRDNSKNTLYLQMNSLRAQDTAVYYCARDLSVYGMDVWGQGTTVTVSS
VL: DIQLTQSPSFLSASVGDRVTITCRASQGISSYLAWYQQKPGKAPKLLIYAASTLQSGVPSRFSGSGSGTEFTLTISSLQPEDFATYYCQQLNSDSFTFGPGTKVDIK
B2: P2-1G7 (antibody, V domains shown)
VH: EVQLVESGGGLIQPGGSLRLSCAASGFIVSSNYMTWVRQAPGKGLEWVSVLFSGGSTFYADSVKGRFTISRDNSKNTLYLQMNSLRAEDTAVYYCARENGGYYFDYWGQGTLVTVSS
VL: B1 VL with S31T, S93N, D94Y, S95P, F96P, T97D, P100G, D105E
B3: P10S-2F9 (antibody, V domains shown)
VH: QVTLRESGPALVKPTQTLPLTCTFSGFSLSTSGMCVSWIRQPPGKALEWLALIDWDDNKYYSTSLKARLTISKDTSKNQVVLTMTNMDPVDTATYYCARIPALLRYLDKFYYFGMDVWGQGTTVTVSS
VL: QSVLTQPPSVSAAPGQKVTISCSGSSPNIGNNYVSWYQQLPGTAPKLLIYDNNKRPSGIPDRFSGSKSGTSATLGITGLQTGDEAGYYCGTWDSSLSAVVFGGGTKLTVL
B4: P186-1H2 (antibody, V domains shown)
VH: EVQLVESGGGLVQPGRSLRLSCAASGFTFGDYAMHWVRQSPGKGLEWVSGITWNSAGIGYADSVKGRFTISRDNAKNSLYLQMNSLRVEDTALYYCAKAPKWGGVDYLFDYWGQGTLVTVSS
VL: not shown
B5: P5S-1D8 (antibody, V domains shown)
VH: EVQLVESGGGLVQPGRSLRLSCAASGFTFDDYAMYWVRQAPGKGLEWVSGVSWNSGTIGYADSVKGRFIISRDNAKNSLYLQMRSLRTEDTALYYCAKDSATRYYSGSDYTSYGMDVWGQGTTVTVSS
VL: QSALTQPASVSGSPGQSITVSCTGTSSDIGDYNYVSWYQQHPGKAPKLMIYDVSNRPSGASNRFSGSKSGNTASLTISGLQAEDEADYYCSSYTSSSTVVFGGGTKVTVL
B6: P2-1G1 (antibody, V domains shown)
VH: EVQLVESGGGLVQPGRSLRLSCAASGFTFDDYAMHWVRQAPGKGLEWVSGMSWNSGTIGYADSVKGRFTISRDNAKNSLYLQMNSLRPEDTALYYCAKDIGGAEMATRNYGMDVWGQGTTVTVSS
VL: B5 VL with V20I, T25A, I29V, D31G, N55E, A60V, V99L, V107L
B7: P104-1G2 (antibody, V domains shown)
VH: QLQLQESGPGLVKPSETLSLTCTVSGGSISSSSYYWGWIRQPPGKGLEWIGSIYYGGSTYYNPSLKSRVTISVDTSKNQFSLKLSSVTAADTAVYYCARSLGIFDYWGQGTLVTVSS
VL: DIQMTQSPSSLSASVGDRVTITCRASQGISNSLAWYQQKPGKAPKLLLYGASTLESGVPSRFSGSGSATDYTLTISSLQPEDFATYYCQQYYSNPPYTFGQGTKLEIK
B8: P5S-3D10 (antibody, V domains shown)
VH: EVQLVESGGDLVQPGRSLRLSCAASGFTFSLFAMSWVRQAPGKGLEWVSTISGRGDSSYYADSVKGRFTISRDNSKNTLYLQITGLRAEDTAVYYCAKGVDGDYGNWFDPWGQGALVTVSS
VL: SYVLTQPPSVSVAPGKTARITCGGNNIGSKSVHWYQQKPGQAPVLVIYYDSDRPSGIPERISGSNSGNTATLTISRVEAGDEADYYCQVWHSSSVIFGGGTKLTVL
B9: P2-2H8 (antibody, V domains shown)
VH: QVQLVQSGAEVKKPGSSVKVSCKASGGTFSSYAISWVRQAPGQGLEWMGRIISMLGIANYAQKFQGRVTITADKSTSTAYMELSSLRSEDTAIYFCARDPDIHYDSSGYSHYYGMDVWGQGTTVTVSS
VL: DIVMTQSPLSLPVTPGEPASISCRSSQSLLHGNGYNYLDWYLQRPGQSPQLLIYLGSNRASGVPGRFSGSGSGTDFTLKISRVEAEDVGVYYCMQALQTLITFGQGTQLEIK
B10: P10S-1D8 (antibody, V domains shown)
VH: QMQLVQSGPEVKKPGTSVKVPCKASGFTFSSSAVQWVRQARGQRLEWIGWIVVGSGNTNYAQKFQERVTITRDMSTSTAYMELSSLRSEDTAVYYCAAPGCNSTSCYDGFDIWGQGTMVTVSS
VL: not shown
B11: P5S-2G9 (antibody, V domains shown)
VH: QVTLRESGPALVKPTQTLTLTCTFSGFSLRTTGMCVSWIRQPPGKALEWLALIDWDGDKYYATSLETRLTISKDTSENQVVLTMTNMDPVDTATYYCVRTLRLRWLDFWGQGTLVTVSS
VL: DIQMTQSPSSLSASVGDRVTITCRASQSIGTSLNWYQQKPVKAPNLLIYGASSLQSGVPSRFSGSGSGTDFTLTISSLQPEDFATYYCQQGYTTPLTFGGGTKVEIK
B12: P2S-2A6 (antibody, V domains shown)
VH: EVQLVESGGGLVQPGRSLRLSCAASGMTFDDYDMHWVRQVPGKGLEWVSGISWNGGIIGYADSVKGRFTISRDNAKTSLYLQMNSLRAEDTALYYCAKVAGRGDYDYYYGMDVWGQGTTVTVSS
VL: QSVLTQPPSVSGAPGQRVTISCTGSSSNIGAGYDVHWYQQLPGTAPKLLIYGNNNRPSGVPDRFSGSKSGTSASLAITGLQAEDEADYYCQSYDSSLSGSVFGGGTKLTVL
B13: P2S-1H6 (antibody, V domains shown)
VH: B12 VH with M27F, V40A, R87K, A88P
VL: B12 VL
B14: P186-2B1 (antibody, V domains shown)
VH: EVQLVESGGGLVQPGGSLRLSCAASGFTVSSNYMSWVRQAPGKGLEWVSVIYSGGSTYYTDSVKGRFTISRHNSKNTLYLQMNSLRVEDTAVYYCARVGTNYINNSGWYFDYWGQGTLVTVSS
VL: not shown
B15: P2-1D5 (antibody, V domains shown)
VH: QVQLVESGGGVVQPGRSLRLSCAASGFTFSSSVMHWVRQAPGKGLEWVALIWYDGSNKYYADSVKGRFTISRDNSKNTLYLQMNSLRAEDTAVYYCARDREITMTTFDYWGQGTLVTVSS
VL: not shown
B16: P195-1B7 (antibody, V domains shown)
VH: QITLKESGPTLVKPTQTLTLTCTFSGFSLSTSGVGVGWIRQPPGKALEWLALIYWDDDKRYSPSLKSRLTITKDTSKNQVVLTMTNMDPVDTATYYCAHSGYSGYDWRGFDYWGQGTLVTVSS
VL: SYELTQPPSVSVSPGQTARITCSADALPKQYAYWYQQKPGQAPVLVIYKDSERPSGIPERFSGSSSGTTVTLTISGVQAEDEADYYCQSADSSGTYPVVFGGGTKLTVL
B17: P195-2A1 (antibody, V domains shown)
VH: EVQLVESGGGLVQPGGSLRLSCAASGFTVSSNYMSWVRQAPGKGLEWVSVIYSGGSTYYADSVKGRFTISRDNSKNTLYLQMNSLRAEDTAVYYCARGEGGDLPFDYWGQGTLVTVSS
VL: QSALTQPASVSGSPGQSITISCTGTSSDVGGYYYVSWFQQHPGEAPKLMIFDVSKRPSGVSNRFSGSKSGNTASLTISGLQAEDEADYYCSSYTSSSTSHVLFGGGTKLTVL
B18: P195-2A3 (antibody, V domains shown)
VH: QVTLRESGPALVKPTQTLTLTCTFSGFSLSTSGMCVSWIRQPPGKALEWLALIDWDDDKYYSTSLKTRLTISKDTSKNQVVLRMTNMDPVDTATYYCARSWVGGGLDVWGQGTTVTVSS
VL: not shown
B19: P195-1E11 (antibody, V domains shown)
VH: EVQLVESGGGLVQPGRSLRLSCAASGFTFDDYAMHWVRQAPGKGLEWVSGISWNSGSIVYADSVKGRFTISRDNAKNSLYLQMNSLRAEDTALYYCAKDSEDCSSTNCYFDYWGQGTLVTVSS
VL: not shown
B20: P2-2D8 (antibody, V domains shown)
VH: EVQLVESGGGLVKPGGSLRLSCAASGFTFSNAWMNWVRQAPGKGLEWVGRIKSKADGGTTDYAAPVKGRFTISRDDSKNTLYLQMNSLKTDDTAVYYCTTTRAVAATLNFLFSYYDGMDVWGQGTTVTVSS
VL: NFMLTQPHSVSESPGKTVTISCTGSSGSIASNYVQWYQQRPGSAPTTVIYEDNQRPSGVPDRFSGSIDSSSNSASLTISGLKTEDEADYYCQSYDSNNHLVLFGGGTKLTVL
B21: P5-2H11 (antibody, V domains shown)
VH: EVQLVESGGGLIQPGGSLRLSCAASEFTVSSNYMSWVRQAPGKGLEWVSIIYSGGSTFYADSVKGRFTISRDNSQNTLYLQMNSLRAEDTAVYYCARTLPLYGDYFDYWGQGTLVTVSS
VL: QSVLTQPPSVSGAPGQRVTISCTGSSSNIGAGYDVHWYQQLPGTAPKLLIYGNNNRPSGVPDRFSGSKSGTSASLAITGLQPEDEADYYCQSYDSSLSVVFGGGAKLTVL
B22: P5-1A7 (antibody, V domains shown)
VH: EVQLVESGGDLIQPGGSLRLSCAASGFTVSSNYMSWVRQAPGKGLEWVAVIYSGGSTYYADSVKGRFTISRDNSKNTLYLQMNSLRAEDTAVYYCARDYGDFYFDYWGQGTLVTVSS
VL: not shown

These binders were tested against recombinant RBD protein of wild-type SARS-CoV-2 (ELISA antigen) (SARS-CoV-2 wild-type, UniProt P0DTC2).
B1: binds. B2: binds. B3: binds. B4: binds. B5: binds. B6: binds. B7: binds. B8: binds. B9: binds. B10: binds. B11: binds. B12: binds. B13: binds. B14: binds. B15: binds. B16: binds. B17: binds. B18: binds. B19: binds. B20: binds. B21: binds. B22: binds.

What follows are binders tested against recombinant wild-type SARS-CoV-2 S trimer (ELISA antigen) (SARS-CoV-2 wild-type, UniProt P0DTC2).
B1: binds. B2: binds. B3: binds. B4: binds. B5: binds. B6: binds. B7: binds. B8: binds. B9: binds. B10: binds. B11: binds. B12: binds. B13: binds. B14: binds. B15: binds. B16: binds. B17: binds. B18: binds. B19: binds. B20: binds. B21: binds. B22: binds.
